Source: article PMC6494882, “Inhibition of MYC by the SMARCB1 tumor suppressor”

Target: MAX:MAX (UniProt P61244 1-160)
Test: EMSA; no SNF5; 15 mM Tris-HCl pH 7.9, 15% glycerol, 100 mM KCl, 0.15 mM EDTA, 0.075% NP-40, 7.5 mM 2-mercaptoethanol, 40 ng poly(dI-dC), 375 ng/ul BSA, 25 fmol probe, 10-15 ul, 30 min, room temperature; SUMO-BAF155(533-580) added to equalize total protein in SNF5 experiments
Details: protein: recombinant; tags: 6xHis; chain copies: 2; label: 3'-biotin

Chain of MAX:MAX (P61244 whole entry): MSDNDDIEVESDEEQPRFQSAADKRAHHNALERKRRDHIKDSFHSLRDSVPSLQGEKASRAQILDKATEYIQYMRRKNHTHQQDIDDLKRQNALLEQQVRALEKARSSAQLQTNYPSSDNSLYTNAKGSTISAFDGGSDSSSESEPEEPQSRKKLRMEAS

B1: wild-type E-box probe (dsDNA)
DNA 1: GCTCAGGGACCACGTGGTCGGGGATC
DNA 2: GATCCCCGACCACGTGGTCCCTGAGC
  binding result: binds
